The supplement of paper PMC10126150
± gives the standard deviation of the averaged measurements.

Test system: ATP
Experiment: switch fluorescence ratio, 500 uM ATP over buffer (Cy3 cluster intensity, sum of 5 cycles each) (fold (ratio)); higher = stronger signal-on switching upon ATP binding; sequences stand for … in TCGTCGGCAGCGTCAGATGTGTATAAGAGACAGTTTTTTTTTTTTTTTTTTTTTTTTT…TC
Conditions: aptamer strand: ATP DNA aptamer (quencher-CACCTGGGGGAGTATTGCGGAGGAAGG + anchor), 100 nM annealed; ATP concentration: 500 uM
Procedure, shortened: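 The fluorescence ratio divides summed target-cycle Cy3 intensity by summed buffer-cycle Cy3 intensity for each cluster and is averaged per switch-domain sequence. Cy3-labelled switching-strand clusters on a modified Illumina MiSeq flow-cell were annealed to 100 nM quencher-labelled ATP aptamer, then imaged in selection buffer and again after 15 min with 500 uM ATP at 22 °C. Five such cycles were run, with NaOH stripping and re-annealing between them, and clusters outside 100-1000 RFU were excluded.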
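Further: ATP exposure 15 min at 22 °C before imaging.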

| Sequence | switch fluorescence ratio |
| --- | --- |
| AGTGGAGTCA | 1.02 ± 0.035 |
| AGTGGCATAG | 0.996 ± 0.022 |
| AGTGGGATAA | 1.11 ± 0.099 |
| AGTGGGCTTT | 0.996 ± 0.037 |
| AGTGGGGATA | 0.986 ± 0.039 |
| AGTGGGGCGT | 1 ± 0.016 |
| AGTGGGGGG | 1.0071 ± 0.001 |
| AGTGGGGGGG | 0.991 ± 0.049 |
| AGTGGGGGGT | 0.991 ± 0.03 |
| AGTGGGTATA | 1.01 ± 0.02 |
| AGTGGGTGGG | 0.9921 ± 0.0049 |
| AGTGGGTTTT | 0.988 ± 0.043 |
| AGTGGTGGCG | 0.9 ± 0.082 |
| AGTGTAAGCC | 0.9622 ± 0.0067 |
| AGTGTACCCA | 1.077 ± 0.01 |
| AGTGTGCATG | 1.03 ± 0.013 |
| AGTGTGCTGG | 1.01 ± 0.043 |
| AGTGTTCGGG | 1 ± 0.043 |
| AGTGTTGCAG | 0.98 ± 0.048 |
| AGTGTTTGG | 0.997 ± 0.02 |
| AGTTAAAGCT | 1.151 ± 0.0063 |
| AGTTAACAGC | 0.959 ± 0.04 |
| AGTTAACTCA | 1.013 ± 0.0056 |
| AGTTAAGGGT | 0.9925 ± 0.0071 |
| AGTTAATAAT | 1.01 ± 0.032 |

| Sequence | switch fluorescence ratio |
| --- | --- |
| AGTTAATTTC | 0.989 ± 0.03 |
| AGTTAATTTT | 1.0014 ± 0.0007 |
| AGTTACAGTC | 1.05 ± 0.073 |
| AGTTAGAAAT | 1.02 ± 0.03 |
| AGTTAGGACA | 1 ± 0.031 |
| AGTTAGGCCT | 1.02 ± 0.039 |
| AGTTAGGTTA | 1 ± 0.014 |
| AGTTAGTTCG | 0.969 ± 0.043 |
| AGTTATACGG | 0.995 ± 0.032 |
| AGTTATACGT | 1.03 ± 0.048 |
| AGTTATCCGG | 0.97 ± 0.044 |
| AGTTATGCAC | 1.024 ± 0.0083 |
| AGTTATGTTA | 1 ± 0.022 |
| AGTTCAATT | 0.9971 ± 0.0032 |
| AGTTCACTGG | 0.979 ± 0.02 |
| AGTTCATTT | 0.999 ± 0.019 |
| AGTTCGTCGT | 0.983 ± 0.015 |
| AGTTCGTGGG | 0.973 ± 0.013 |
| AGTTCTACAT | 1.01 ± 0.039 |
| AGTTCTAGGT | 0.986 ± 0.018 |
| AGTTCTATTT | 1.01 ± 0.021 |
| AGTTGAAGTT | 1.02 ± 0.039 |
| AGTTGAATGT | 0.9647 ± 0.0063 |
| AGTTGAGCTT | 0.987 ± 0.013 |
| AGTTGAGGGC | 0.98 ± 0.047 |

| Sequence | switch fluorescence ratio |
| --- | --- |
| AGTTGCGATG | 0.985 ± 0.014 |
| AGTTGCGGTC | 0.9516 ± 0.0041 |
| AGTTGCGTCC | 1.01 ± 0.026 |
| AGTTGCTTTT | 0.993 ± 0.036 |
| AGTTGGATGT | 0.977 ± 0.012 |
| AGTTGGGAAC | 1.01 ± 0.015 |
| AGTTGGGCGG | 1.02 ± 0.021 |
| AGTTGGGGAG | 0.9933 ± 0.0023 |
| AGTTGGGGGG | 0.986 ± 0.01 |
| AGTTGGGTGC | 0.99 ± 0.018 |
| AGTTGGTAGC | 1.01 ± 0.011 |
| AGTTGTATGT | 0.951 ± 0.037 |
| AGTTGTGAGG | 1.01 ± 0.026 |
| AGTTGTGCAG | 1.02 ± 0.062 |
| AGTTGTGCCT | 1.015 ± 0.0036 |
| AGTTGTGGGG | 0.995 ± 0.032 |
| AGTTGTTGGG | 0.998 ± 0.013 |
| AGTTGTTTAG | 1.01 ± 0.012 |
| AGTTTAATGT | 1 ± 0.027 |
| AGTTTACATT | 1.02 ± 0.026 |
| AGTTTATACT | 1.03 ± 0.0032 |
| AGTTTATTAT | 1.02 ± 0.015 |
| AGTTTCAGGT | 1.005 ± 0.006 |
| AGTTTCTGAG | 1.01 ± 0.056 |
| AGTTTCTTTT | 0.994 ± 0.0026 |

| Sequence | switch fluorescence ratio |
| --- | --- |
| AGTTTGAGGT | 0.995 ± 0.023 |
| AGTTTGATAG | 0.998 ± 0.017 |
| AGTTTGATGA | 0.989 ± 0.028 |
| AGTTTGGCGG | 0.923 ± 0.084 |
| AGTTTGGCGT | 1.01 ± 0.041 |
| AGTTTGGGAG | 0.992 ± 0.021 |
| AGTTTGGGGT | 1.01 ± 0.029 |
| AGTTTGGTCC | 0.997 ± 0.035 |
| AGTTTGGTCT | 0.984 ± 0.034 |
| AGTTTGGTTG | 0.991 ± 0.053 |
| AGTTTGTAGT | 1 ± 0.011 |
| AGTTTGTTGG | 0.989 ± 0.035 |
| AGTTTGTTGT | 1.06 ± 0.095 |
| AGTTTGTTTG | 1.006 ± 0.009 |
| AGTTTTAAGC | 1.01 ± 0.043 |
| AGTTTTAGTC | 1.01 ± 0.017 |
| AGTTTTCCCT | 1.01 ± 0.015 |
| AGTTTTGAGA | 0.983 ± 0.022 |
| AGTTTTGATG | 0.9784 ± 0.0044 |
| AGTTTTTGAT | 0.9692 ± 0.0068 |
| AGTTTTTGGT | 0.97 ± 0.028 |
| AGTTTTTTGC | 0.908 ± 0.025 |
| AGTTTTTTGT | 0.979 ± 0.042 |
| ATAAAACAAG | 0.99 ± 0.027 |
| ATAAAAGAAT | 0.998 ± 0.0085 |

| Sequence | switch fluorescence ratio |
| --- | --- |
| ATAAAATATT | 0.998 ± 0.022 |
| ATAAACCTAA | 1.05 ± 0.024 |
| ATAAAGATAG | 1.0006 ± 7.5e-05 |
| ATAAAGGGCG | 1.029 ± 0.01 |
| ATAAAGTGTG | 1.01 ± 0.02 |
| ATAAAGTTGA | 1 ± 0.034 |
| ATAAATAAAA | 0.984 ± 0.036 |
| ATAAATTGCG | 0.9931 ± 0.0086 |
| ATAACAAGGG | 1.04 ± 0.089 |
| ATAACACAGG | 1.279 ± 0.0016 |
| ATAACCCCGA | 1.088 ± 0.0075 |
| ATAACCGCGG | 0.994 ± 0.025 |
| ATAACGAATG | 1.01 ± 0.024 |
| ATAACGCGGT | 0.9967 ± 0.0047 |
| ATAACTGCGG | 1.02 ± 0.012 |
| ATAAGAAGAT | 1.022 ± 0.0014 |
| ATAAGCACTT | 1.22 ± 0.027 |
| ATAAGCGCGT | 0.999 ± 0.017 |
| ATAAGGCTAA | 0.982 ± 0.016 |
| ATAAGGCTTG | 0.968 ± 0.03 |
| ATAAGGGAGT | 0.9909 ± 0.0033 |
| ATAAGGGCGA | 0.985 ± 0.028 |
| ATAAGGGCGT | 1.001 ± 0.0065 |
| ATAAGGTCTA | 0.971 ± 0.015 |
| ATAAGGTTGT | 0.977 ± 0.025 |

| Sequence | switch fluorescence ratio |
| --- | --- |
| ATAAGTAAAT | 1 ± 0.018 |
| ATAAGTCCGA | 0.99 ± 0.026 |
| ATAAGTGCTG | 0.991 ± 0.017 |
| ATAATACCTT | 1.15 ± 0.094 |
| ATAATATGTT | 0.9911 ± 0.004 |
| ATAATCAAGG | 1.01 ± 0.032 |
| ATAATCGATT | 0.978 ± 0.011 |
| ATAATCTATC | 0.995 ± 0.045 |
| ATAATCTGCG | 1.01 ± 0.012 |
| ATAATCTGTG | 0.986 ± 0.0023 |
| ATAATGACGT | 1.01 ± 0.049 |
| ATAATGGTGT | 1.03 ± 0.029 |
| ATAATTAACG | 0.986 ± 0.034 |
| ATAATTAAGA | 0.992 ± 0.014 |
| ATAATTAGTA | 0.9455 ± 0.0079 |
| ATAATTCGGT | 0.985 ± 0.025 |
| ATAATTTAGT | 0.982 ± 0.028 |
| ATAATTTTAC | 1.07 ± 0.041 |
| ATAATTTTCA | 1.01 ± 0.03 |
| ATAATTTTGG | 0.973 ± 0.017 |
| ATACAAGGCT | 1.02 ± 0.03 |
| ATACACATAG | 1.04 ± 0.014 |
| ATACGAGAAT | 1 ± 0.023 |
| ATACGAGGGC | 1.01 ± 0.028 |
| ATACGAGTGC | 1.01 ± 0.012 |

| Sequence | switch fluorescence ratio |
| --- | --- |
| ATACGATATT | 1.142 ± 0.0033 |
| ATACGATTGG | 0.9674 ± 0.0044 |
| ATACGCAGCG | 0.998 ± 0.01 |
| ATACGGATGG | 0.984 ± 0.033 |
| ATACGGGAGT | 1 ± 0.0018 |
| ATACGGGATT | 1.044 ± 0.0064 |
| ATACGGGGTA | 1.03 ± 0.054 |
| ATACGGTAAT | 1.16 ± 0.052 |
| ATACGTCGGC | 0.984 ± 0.046 |
| ATACGTTCGG | 1.01 ± 0.0015 |
| ATACTCGCGT | 1.014 ± 0.01 |
| ATACTCTTAT | 1.03 ± 0.04 |
| ATACTGCTCT | 0.968 ± 0.059 |
| ATACTGGAAA | 1.011 ± 0.01 |
| ATACTGGGAT | 1.031 ± 0.0015 |
| ATACTTAAGG | 1.016 ± 0.0013 |
| ATACTTATTT | 1.03 ± 0.018 |
| ATACTTTAAA | 1.17 ± 0.1 |
| ATACTTTTGC | 0.952 ± 0.034 |
| ATAGAAAAAT | 1.003 ± 0.0098 |
| ATAGAAGGGG | 1.08 ± 0.14 |
| ATAGAATAGG | 0.9867 ± 0.0065 |
| ATAGAATTTA | 0.956 ± 0.024 |
| ATAGACGGAT | 0.987 ± 0.06 |
| ATAGAGACTA | 1.006 ± 0.0078 |

| Sequence | switch fluorescence ratio |
| --- | --- |
| ATAGAGGCTA | 0.992 ± 0.025 |
| ATAGAGTTTG | 0.976 ± 0.0014 |
| ATAGATCATC | 1.05 ± 0.02 |
| ATAGATGAGG | 1.007 ± 0.0046 |
| ATAGATTAGG | 0.9854 ± 0.0092 |
| ATAGCAGGGT | 1 ± 0.012 |
| ATAGCAGGTG | 2.9 ± 1.1 |
| ATAGCCCGCT | 1.03 ± 0.0014 |
| ATAGCCGTGC | 1.017 ± 0.0054 |
| ATAGCGGTCG | 1.01 ± 0.07 |
| ATAGCTGTTA | 0.978 ± 0.05 |
| ATAGCTTGGG | 0.985 ± 0.017 |
| ATAGGAACGT | 1.08 ± 0.1 |
| ATAGGAATTT | 0.993 ± 0.021 |
| ATAGGACAAC | 1.038 ± 0.0081 |
| ATAGGACGGG | 0.967 ± 0.028 |
| ATAGGAGTGC | 1.01 ± 0.023 |
| ATAGGATATA | 1.03 ± 0.018 |
| ATAGGATCAC | 1.02 ± 0.028 |
| ATAGGATCAT | 0.975 ± 0.03 |
| ATAGGATCGC | 0.99 ± 0.039 |
| ATAGGATTTA | 0.989 ± 0.013 |
| ATAGGCATTT | 1.03 ± 0.013 |
| ATAGGGAAGT | 1 ± 0.017 |
| ATAGGGAATG | 0.9986 ± 0.007 |
